Experimental data reported in article PMC5503512, “The complex of TRIP-Br1 and XIAP ubiquitinates and degrades multiple adenylyl cyclase isoforms” (eLife, 2017).

Columns and labels:
[1] = target: T1, FLAG-His-tagged AC1-M (AC1 amino acids 236-612) (bovine, UniProt P19754 236-612); experiment: pull-down; pairwise pull-down, two purified proteins from E. coli, 5 μg of each, FLAG-His-tagged AC1 fragment held on anti-FLAG M2 affinity gel, Co-IP buffer, 500 μL, 2 hr at 4°C; washed with PBS containing 1% Triton X-100; western blot; details: both partners purified
T1 construct: Ends of the tags as in the printed name His-AC1-M-FLAG; also called His-AC1-M-FLAG; M, cytosolic region between the 2 transmembrane domains; not shown: His, N-terminal, kept; FLAG, C-terminal, kept

[2] = target: T2, His-XIAP purified from E. coli (human, UniProt P98170 1-497); experiment: pull-down; GST, GST-TRIP-Br1 or GST-TRIP-Br1 truncation mutants used to capture His-XIAP purified from E. coli; details: both partners purified
T2 construct: also called purified XIAP; source: E. coli BL21, purified (Ni-NTA, with 200 μM zinc sulfate)
T2 sequence (P98170 whole entry, the tested form may be a part): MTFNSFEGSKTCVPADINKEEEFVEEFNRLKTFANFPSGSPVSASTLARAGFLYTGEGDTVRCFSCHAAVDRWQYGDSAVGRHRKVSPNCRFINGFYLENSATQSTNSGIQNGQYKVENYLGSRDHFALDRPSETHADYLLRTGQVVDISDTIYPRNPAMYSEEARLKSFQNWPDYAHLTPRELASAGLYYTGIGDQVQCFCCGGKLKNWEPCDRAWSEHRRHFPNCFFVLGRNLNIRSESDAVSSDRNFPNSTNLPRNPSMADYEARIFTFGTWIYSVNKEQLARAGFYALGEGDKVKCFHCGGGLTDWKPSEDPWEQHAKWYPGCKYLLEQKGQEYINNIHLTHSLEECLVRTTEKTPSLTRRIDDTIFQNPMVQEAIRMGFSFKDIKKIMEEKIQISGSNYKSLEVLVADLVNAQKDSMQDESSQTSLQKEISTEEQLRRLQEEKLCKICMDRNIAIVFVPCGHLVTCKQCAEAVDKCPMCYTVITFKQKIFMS

T1 sequence (P19754 236-612): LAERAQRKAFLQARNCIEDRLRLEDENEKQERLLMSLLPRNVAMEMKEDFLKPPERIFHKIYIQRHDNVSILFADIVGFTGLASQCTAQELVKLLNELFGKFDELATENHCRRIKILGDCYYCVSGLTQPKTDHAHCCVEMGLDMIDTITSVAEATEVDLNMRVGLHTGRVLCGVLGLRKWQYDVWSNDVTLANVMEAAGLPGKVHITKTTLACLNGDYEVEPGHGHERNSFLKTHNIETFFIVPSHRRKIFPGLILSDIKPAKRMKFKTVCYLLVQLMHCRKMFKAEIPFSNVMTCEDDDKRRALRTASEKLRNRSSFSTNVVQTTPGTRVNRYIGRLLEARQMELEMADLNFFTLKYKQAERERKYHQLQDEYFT

B1: purified TRIP-Br1 (His-tagged at both N and C termini) (natural protein, human, UniProt Q9UHV2 1-236, looked up)
chain: MLSKGLKRKREEEEEKEPLAVDSWWLDPGHTAVAQAPPAVASSSLFDLSVLKLHHSLQQSEPDLRHLVLVVNTLRRIQASMAPAAALPPVPSPPAAPSVADNLLASSDAALSASMASLLEDLSHIEGLSQAPQPLADEGPPGRSIGGAAPSLGALDLLGPATGCLLDDGLEGLFEDIDTSMYDNELWAPASEGLKPGPEDGPGKEEAPELDEAELDYLMDVLVGTQALERPPGPGR
notes: TRIP-Br1 (SERTAD1), human, cDNA amplified from Calu-3 cells; The methods call it His-TRIP-Br1; the legends say His-tagged at both termini; also called His-TRIP-Br1; source: E. coli BL21 (codon plus), purified (Ni-NTA); not shown: His, N-terminal, kept; His, C-terminal, kept
[1]
  binding result: binds

B2: GST-TRIP-Br1 fusion protein (full-length TRIP-Br1 fused with GST) (natural protein, human, UniProt Q9UHV2 1-236, looked up)
chain: B1 chain
notes: also called Sertad1; SEI-1; source: E. coli BL21 codon plus, purified (glutathione-Sepharose)
[2]
  binding result: binds
